Data: paper PMC3748711, “APP interacts with LRP4 and agrin to coordinate the development of the neuromuscular junction in mice” (eLife, 2013)

B1: APP-Fc (APP695 extracellular domain, residues 1-596, fused to the constant region of human IgG) (Fc fusion, UniProt P12023-2 18-596, looked up)
chain: LEVPTDGNAGLLAEPQIAMFCGKLNMHMNVQNGKWESDPSGTKTCIGTKEGILQYCQEVYPELQITNVVEANQPVTIQNWCKRGRKQCKTHTHIVIPYRCLVGEFVSDALLVPDKCKFLHQERMDVCETHLHWHTVAKETCSEKSTNLHDYGMLLPCGIDKFRGVEFVCCPLAEESDSVDSADAEEDDSDVWWGGADTDYADGGEDKVVEVAEEEEVADVEEEEADDDEDVEDGDEVEEEAEEPYEEATERTTSTATTTTTTTESVEEVVRVPTTAASTPDAVDKYLETPGDENEHAHFQKAKERLEAKHRERMSQVMREWEEAERQAKNLPKADKKAVIQHFQEKVESLEQEAANERQQLVETHMARVEAMLNDRRRLALENYITALQAVPPRPHHVFNMLKKYVRAEQKDRQHTLKHFEHVRMVDPKKAAQIRSQVMTHLRVIYERMNQSLSLLYNVPAVAEEIQDEVDELLQKEQNYSDDVLANMISEPRISYGNDALMPSLTETKTTVELLPVNGEFSLDDLQPWHPFGVDSVPANTENEVEPVDARPAADRGLTTRPGSGLTNIKTEEISEVKM
B2: MBP-LRP4LBD (LRP4 ligand binding domain, aa 27-349, fused to maltose-binding protein) (domain or fragment, mouse, UniProt Q8VI56 27-349, looked up)
chain: CGRSHFTCAVSALGECTCIPAQWQCDGDNDCGDHSDEDGCTLPTCSPLDFHCDNGKCIRRSWVCDGDNDCEDDSDEQDCPPRECEEDEFPCQNGYCIRSLWHCDGDNDCGDNSDEQCDMRKCSDKEFRCSDGSCIAEHWYCDGDTDCKDGSDEESCPSAVPSPPCNLEEFQCAYGRCILDIYHCDGDDDCGDWSDESDCSSHQPCRSGEFMCDSGLCINSGWRCDGDADCDDQSDERNCTTSMCTAEQFRCRSGRCVRLSWRCDGEDDCADNSDEENCENTGSPQCASDQFLCWNGRCIGQRKLCNGINDCGDSSDESPQQNC
notes: Species is stated as mouse for the LRP4-Fc construct, not expressly for this one; Vector pMAL-p4x; also called LRP4-MBP; source: E. coli BL21, periplasmic extract, purified on amylose column; not shown: MBP, N-terminal, kept

Columns and labels:
[1] = biological target: LRP4 (endogenous, mouse embryonic muscle) (mouse (endogenous in embryonic muscle), UniProt Q8VI56 21-1905); test: cell-based or functional assay
Chain of LRP4 (endogenous, mouse embryonic muscle) (Q8VI56 21-1905): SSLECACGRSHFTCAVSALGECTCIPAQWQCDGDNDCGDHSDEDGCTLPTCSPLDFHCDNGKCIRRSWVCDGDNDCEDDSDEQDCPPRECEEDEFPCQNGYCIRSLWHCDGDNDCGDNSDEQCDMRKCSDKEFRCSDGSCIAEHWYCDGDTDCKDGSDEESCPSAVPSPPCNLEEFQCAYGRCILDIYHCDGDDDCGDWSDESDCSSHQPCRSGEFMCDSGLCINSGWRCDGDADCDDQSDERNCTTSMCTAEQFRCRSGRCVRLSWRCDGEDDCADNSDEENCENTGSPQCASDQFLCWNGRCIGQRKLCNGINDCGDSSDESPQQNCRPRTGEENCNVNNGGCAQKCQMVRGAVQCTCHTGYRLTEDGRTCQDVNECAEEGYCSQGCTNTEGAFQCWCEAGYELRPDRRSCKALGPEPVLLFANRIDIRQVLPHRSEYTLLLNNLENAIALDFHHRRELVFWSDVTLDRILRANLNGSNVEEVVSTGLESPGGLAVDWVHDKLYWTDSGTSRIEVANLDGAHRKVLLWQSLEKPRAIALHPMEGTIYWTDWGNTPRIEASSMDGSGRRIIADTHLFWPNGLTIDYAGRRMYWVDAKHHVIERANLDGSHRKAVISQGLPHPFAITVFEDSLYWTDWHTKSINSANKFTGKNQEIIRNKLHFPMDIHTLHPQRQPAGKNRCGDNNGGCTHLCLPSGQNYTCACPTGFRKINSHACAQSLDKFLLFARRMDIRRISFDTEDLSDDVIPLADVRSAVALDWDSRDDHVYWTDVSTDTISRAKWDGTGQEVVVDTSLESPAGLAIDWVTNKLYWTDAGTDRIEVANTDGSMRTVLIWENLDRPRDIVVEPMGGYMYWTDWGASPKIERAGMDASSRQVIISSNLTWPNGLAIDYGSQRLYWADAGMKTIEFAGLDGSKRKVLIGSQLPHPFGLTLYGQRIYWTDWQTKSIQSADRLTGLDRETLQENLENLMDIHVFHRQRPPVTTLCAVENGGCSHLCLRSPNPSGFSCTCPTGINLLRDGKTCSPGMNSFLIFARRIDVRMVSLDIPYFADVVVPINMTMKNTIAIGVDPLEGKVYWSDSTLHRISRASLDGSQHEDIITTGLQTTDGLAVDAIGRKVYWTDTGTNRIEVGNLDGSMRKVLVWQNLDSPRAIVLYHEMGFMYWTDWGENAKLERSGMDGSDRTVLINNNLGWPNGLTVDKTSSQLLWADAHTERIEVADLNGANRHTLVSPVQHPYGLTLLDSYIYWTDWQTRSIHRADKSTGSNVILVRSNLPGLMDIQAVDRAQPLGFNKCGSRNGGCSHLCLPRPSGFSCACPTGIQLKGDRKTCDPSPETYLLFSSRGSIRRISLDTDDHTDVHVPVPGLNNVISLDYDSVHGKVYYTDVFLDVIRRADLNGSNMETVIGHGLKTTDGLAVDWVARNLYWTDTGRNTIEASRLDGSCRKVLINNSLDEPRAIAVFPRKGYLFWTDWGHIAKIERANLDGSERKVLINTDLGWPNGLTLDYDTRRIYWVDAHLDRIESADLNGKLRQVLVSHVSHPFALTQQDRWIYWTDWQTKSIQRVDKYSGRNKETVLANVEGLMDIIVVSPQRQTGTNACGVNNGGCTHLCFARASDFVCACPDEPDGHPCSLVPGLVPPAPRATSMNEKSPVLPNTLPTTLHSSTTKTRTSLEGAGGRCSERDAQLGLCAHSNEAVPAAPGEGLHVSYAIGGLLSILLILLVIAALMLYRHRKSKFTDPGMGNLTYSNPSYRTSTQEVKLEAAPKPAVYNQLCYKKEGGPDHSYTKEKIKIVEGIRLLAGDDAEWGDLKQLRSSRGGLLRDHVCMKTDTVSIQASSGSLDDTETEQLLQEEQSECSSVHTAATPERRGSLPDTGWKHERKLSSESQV

[2] = biological target: B1; test: pull-down; 100 ng purified APP-Fc on Protein A-agarose beads, incubated with 100 ng purified MBP-LRP4LBD and 0-1000 ng neuronal agrin in PBS with 0.1% BSA, 4 hr, 4°C; immunoblot with anti-MBP, anti-agrin, anti-Fc; conditions: both partners purified

Binder | MuSK tyrosine phosphorylation in myotubes, APP-Fc alone at 1×, 10× or 100× molar concentrations compared to 0.1 nM agrin (0.1-10 nM), 30 min at 37°C, without agrin [1] [fold over baseline] | fold binding against no agrin, with 10 ng/ml agrin [2] [fold] | fold binding against no agrin, with 30 ng/ml agrin [2] [fold]
B1 | 4.3 |  | 
B2 |  | 1.3 | 3
